Results published in patent US20220396822A1, “Method for Measuring Pentosidine and Measurement Kit” (Kikkoman Corporation, priority 2019, published 2022).

How the values were obtained:
Assay type in all cases: biochemical
[1] = Pentosidine quantification test (DA-67/peroxidase, A658); conditions: 37° C., pH 7.0
Procedure: The following reagents were prepared, and pentosidine was measured using Bio Majesty JCA-BM1650 (manufactured by JEOL Ltd.).
0.2 μM, 0.4 μM, 0.6 μM, 1.0 μM, 2.0 μM or 4.0 μM pentosidine solution (prepared using the same pentosidine as in Example 2)
120 mM potassium phosphate buffer (pH 7.0)
0.2 mM DA-67 (10-(carboxymethylaminocarbonyl)-3,7-bis(dimethylamino)phenothiazine, sodium salt) (manufactured by FUJIFILM Wako Pure Chemical Corp.)
25 μL of each sample was added to 50 μL of the first reagent, and the mixture was incubated at 37° C. for 5 minutes. Then, 25 μL of the second reagent was added thereto, and pentosidine oxidation reaction mediated by PenOX2 and reaction for the detection of hydrogen peroxide produced through the reaction were allowed to proceed at 37° C. for 5 minutes.
In the reaction for the detection of hydrogen peroxide, DA-67 was oxidized, with concomitant consumption of […], into methylene blue which in turn developed color while absorbance (A658) was elevated. […] Elevation in A658 was able to be confirmed immediately after addition of the second reagent containing PenOX2.
Subsequently, the amount of elevation in A658 (ΔA) caused by the oxidation of pentosidine was calculated according to the following expression.
ΔA=(Absorbance 5 minutes after addition of the second reagent)−(Absorbance immediately before addition of the second reagent×0.75)

[2] = Method for measuring enzymatic activity (pentosidine oxidase activity, A555), Examples 9 and 10; conditions: 37° C., pH 7.5; 1 mg enzyme powder in 1 mL deionized water
Procedure: The amount of the enzyme that produced 1 μmol of hydrogen peroxide per minute at 37° C. was defined as 1 unit (U). The activity was calculated according to the following expression.
Each buffer was prepared as a 50 mM (final concentration) citric acid-100 mM potassium phosphate buffer (pH 4.0 to 7.5), a 100 mM (final concentration) potassium phosphate buffer (pH 6.5 to 8.0), and a 100 mM (final concentration) glycine buffer (pH 8.0 to 11.0). Enzyme reaction was performed at each pH at a temperature of 37° C. using these buffers. […] It was therefore concluded that the optimum pH of PenOX2 is pH 6.5 to 8.0 and is most preferably pH 7.5.
The activity of PenOX2 was measured at varying temperatures using a 50 mM (final concentration) potassium phosphate buffer (pH 7.5). […] It was thus concluded that the range of the optimum temperature of PenOX2 is from 37° C. to 50° C.
As mentioned above, both PenOX1 and PenOX2 had pentosidine oxidase activity. When the percent match between their amino acid sequences was examined using the BLAST program, the amino acid sequence homology therebetween was 38.2%. […] The amino acid sequence homology to PenOX1 and PenOX2 and pentosidine oxidase activity of each enzyme were as follows.

[3] = Substrate specificity analysis of amino acid degrading enzymes (reaction rate, A555); conditions: room temperature, pH 6.8, amino acids 4 mM, pentosidine 2 mM solutions
Procedure: The amino acid eliminating enzyme 1 liquid obtained in Example 12 was diluted to 0.134 U/ml with a 0.1 M potassium phosphate buffer (pH 6.8).
Pentosidine (which was the same as in Example 12) was dissolved at 2 mM in deionized water. Various amino acids were each dissolved at 4 mM in deionized water.
Peroxidase (manufactured by Toyobo Co., Ltd.) (3.99 U/ml), 4-aminoantipyrine (manufactured by Fluka/Honeywell International Inc.) (1.8 mM), and TOOS (manufactured by Dojindo Laboratories Co., Ltd.) (2 mM) were dissolved in deionized water.
Every measurement was performed at room temperature unless otherwise specified. A 96-well microwell plate (manufactured by Nunc/Thermo Fisher Scientific, Inc.) was used in reaction.
25 μl of each amino acid solution or the pentosidine solution of (2) and 25 μl of the coloring reagent of (3) were added in order to 50 μl of the enzyme liquid of (1). At the start and ten minutes later, absorbance at 555 nm was measured. A slope of elevation in absorbance was regarded as a reaction rate for the target substrate. […]
Every measurement was performed at room temperature unless otherwise specified. […] At the start and ten minutes later, absorbance at 555 nm was measured. A slope of elevation in absorbance was regarded as a reaction rate for the target substrate.

Molecule	specific activity (pentosidine oxidase) as a reference value [2] [U/mg]	substrate having the highest reaction rate [3]	also measured
PenOX1: protein having the amino acid sequence of SEQ ID NO: 2, pentosidine oxidase from a filamentous fungus of the genus Sarocladium (protein, listed as Sarocladium sp.) MKSPSLAVAGLLLGSSSLSHATQLRIETRKSLNSRIANVHIDVDAPVAHQVVFTYGPCDSESQENAHHVIAQSQKLEGRKPHRLIWTMPKDLHPDDCISAWGESGDLLGRSVPQKVAHKEMRRRKRDDSDYSIPMNSSSGIDVYGPWFDGVALLEKSDNHNVDVEAAKAKEIAIVGAGMAGLTTYFILSEAGLSNLTILEASGRLGGRVRTEYLSGGPRDHSYAEMGPMRIPYQARFGDKAYNISDQAIFFRLVEKVNERNKKLGNTKDLINLIPFIQSSPNGLAYYQGNKLENGLPPTQADVAADPALGNESPEIPESAQELAAQLQRALPNAEFLELMATNFWQAHAEFLENQGPAGLPGDQWSEFAFLVNYLNATVFDANAVTGGYDWHSSLDRSSLVGMNLLPNAFHPLVDDITKFNAKVEKVQLDEKTSRLKLHWRANYTDPELESQSFDYAILSPTMPAVQKLRLPGLPFAMRNAVDSMPYASACKVALEYRTRFWEKFDNPIYGSCSTSTDIPGIGSVCYPSSNINGSGPASLLASYEIGRPYGAEWAGIPEEQHVQYVIDAMIDIHGEVARREFTGKCKRKCWALDEFSNGGWASPTVGNHETYLPSFFETHSHMIFVGEHTSYTHAWIASAIESAVRGSVQLLLELGLIDEAKDVVNTWMARWISVVSDLSKAVVSGASA			pentosidine oxidizing activity [1]: exhibited pentosidine oxidizing activity
Crotalus Atrox-Derived Amino Acid Oxidase Type I: purchased enzyme manufactured by Merck KGaA, SEQ ID NO: 13 (protein, Crotalus atrox) AHDRNPLEECFRETDYEEFLEIAKNGLTATSNPKRVVIVGAGMAGLSAAYVLAGAGHQVTVLEASERVGGRVRTYRKKDWYANLGPMRLPTKHRIVREYIKKFDLKLNEFSQENENAWYFIKNIRKRVREVKNNPGLLEYPVKPSEEGKSAAQLYVESLRKVVEELRSTNCKYILDKYDTYSTKEYLLKEGNLSPGAVDMIGDLLNEDSGYYVSFIESLKHDDIFGYEKRFDEIVGGMDQLPTSMYEAIKEKVQVHFNARVIEIQQNDREATVTYQTSANEMSSVTADYVIVCTTSRAARRIKFEPPLPPKKAHALRSVHYRSGTKIFLTCTKKFWEDDGIHGGKSTTDLPSRFIYYPNHNFTSGVGVIIAYGIGDDANFFQALDFKDCADIVINDLSLIHELPKEDIQTFCHPSMIQRWSLDKYAMGGITTFTPYQFQHFSEALTAPFKRIYFAGEYTAQFHGWIDSTIKSGLTAARDVNRASENPSGIHLSNDNEF	0.022		
Trichoderma viride-Derived Lysine Oxidase: purchased enzyme manufactured by Merck KGaA, SEQ ID NO: 14 (protein, Trichoderma viride) MDNVDFAESVRTRWARRLIREKVAKELNILTERLGEVPGIPPPREGRFLGGGYSHDNLPSDPLYSSIKPALLKEAPRAEEELPPRKVCIVGAGVSGLYIAMILDDLKIPNLTYDIFESSSRTGGRLYTHHFTDAKHDYYDIGAMRYPDIPSMKRTFNLFKRTGMPLIKYYLDGENTPQLYNNHFFAKGVVDPYMVSVANGGTVPDDVVDSVGEKLQQAFGYYKEKLAEDFDKGFDELMLVDDMTTREYLKRGGPKGEAPKYDFFAIQWMETQNTGTNLFDQAFSESVIDSFDFDNPTKPEWYCIEGGTSLLVDAMKETLVHKVQNNKRVEAISIDLDAPDDGNMSVKIGGKDYSGYSTVFNTTALGCLDRMDLRGLNLHPTQADAIRCLHYDNSTKVALKFSYPWWIKDCGITCGGAASTDLPLRTCVYPSYNLGDTGEAVLLASYTWSQDATRIGSLVKDAPPQPPKEDELVELILQNLARLHAEHMTYEKIKEAYTGVYHAYCWANDPNVGGAFALFGPGQFSNLYPYLMRPAAGGKFHIVGEASSVHHAWIIGSLESAYTAVYQFLYKYKMWDYLRLLLERWQYGLQELETGKHGTAHLQFILGSLPKEYQVKIV	0.063		
amino acid degrading enzyme 1: mature escapin derived from Aplysia californica (SEQ ID NO: 15) expressed in Aspergillus sojae (protein, listed as Aplysia californica) DGVCRNRRQCNKEVCGSSYDVAIVGAGPGGANSAYMLRESGLDIAVFEYSDRVGGRLFTYQLPNTPDVNLEIGGMRFIEGAMHRLWKVISELGLTPKVFKEGFGKEGRQRFYLRGQSLTKKQVKSGDVPYDLSPEEKANQGRLVEYYLEKLTGLQLNGGPLKREVALKLTVPDGRFLYDLTFDEALDLVASPEGKEFARDTHVFTSEVTLDASAISIFDDHLGEDYYGSEIYTLEEGMSSVPQGLLQTFLDAAKSNEFFPNNHLKALRRRTNGQYVLYFEPTTSKDGQTTINYLEPLKVVCAQRVILAMPVYALRQLDWSQLRNDRATQAYRAVRPMPASKVFMTFDQPWWLQNERKSWVTKSDALFSQMYDWQKSEASGDYILIASYADGLKAQYLRELKNQGEDIPGSDPGYNQVTVPLKDAILEHLTEAYGVERDSIPEPVTAASQFWTDYPFGCGWITWRAGYHFDDVISTMRRPSLKDEVYVVGSDYSWGLISSWIEGALETSENVINDYFL		arginine	
amino acid eliminating enzyme 2: Crotalus adamanteus-derived L-amino acid oxidase Type I, manufactured by Merck KGaA (SEQ ID NO: 19) (protein, listed as Crotalus adamanteus) AHDRNPLEECFRETDYEEFLEIAKNGLTATSNPKRVVIVGAGMAGLSAAYVLAGAGHQVTVLEASERVGGRVRTYRKKDWYANLGPMRLPTKHRIVREYIKKFDLKLNEFSQENENAWYFIKNIRKRVREVKNNPGLLEYPVKPSEEGKSAAQLYVESLRKVVEELRSTNCKYILDKYDTYSTKEYLLKEGNLSPGAVDMIGDLLNEDSGYYVSFIESLKHDDIFGYEKRFDEIVGGMDQLPTSMYEAIKEKVQVHFNARVIEIQQNDREATVTYQTSANEMSSVTADYVIVCTTSRAARRIKFEPPLPPKKAHALRSVHYRSGTKIFLTCTKKFWEDDGIHGGKSTTDLPSRFIYYPNHNFTSGVGVIIAYGIGDDANFFQALDFKDCADIVINDLSLIHELPKEDIQTFCHPSMIQRWSLDKYAMGGITTFTPYQFQHFSEALTAPFKRIYFAGEYTAQFHGWIDSTIKSGLTAARDVNRASENPSGIHLSNDNEF		leucine	
